Laboratory results published in US20050214287A1 (published 2005).

Columns and labels:
CXCR4 (human) = CXCR4 (human) (UniProt P61073); experiment: competition of 125I SDF-1α on CEM-NKr cells
CXCR4 = molecular target: T1, CXCR4 (human, UniProt P61073 1-352); experiment: displacement of 125I SDF-1α on CEM-NKr cells, DisplaceMax panel
T1 construct: whole, on cells; also called the SDF-1 receptor expressed on CEM-NKr; the hallmark SDF-1 receptor
T1 sequence (P61073 whole entry): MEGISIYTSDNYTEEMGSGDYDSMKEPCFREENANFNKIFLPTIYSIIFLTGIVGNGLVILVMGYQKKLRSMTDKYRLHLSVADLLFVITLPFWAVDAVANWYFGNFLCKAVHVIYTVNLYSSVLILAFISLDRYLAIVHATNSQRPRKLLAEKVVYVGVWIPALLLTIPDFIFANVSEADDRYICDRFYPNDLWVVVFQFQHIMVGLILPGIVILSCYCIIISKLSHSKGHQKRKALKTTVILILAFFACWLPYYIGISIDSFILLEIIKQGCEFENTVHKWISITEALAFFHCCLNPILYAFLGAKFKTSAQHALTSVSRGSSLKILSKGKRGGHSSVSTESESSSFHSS

Sequence of CXCR4 (human) (P61073 whole entry): as above

| Molecule | IC50 (CXCR4 (human)) [nM] | binding result (CXCR4) |
| --- | --- | --- |
| SDF-1β (human) (from UniProt P48061 22-93) (ligand) | 1.5 |  |
| I-TAC (mouse) (ligand, UniProt Q9JHH5 22-100, looked up, also called CXCL11) FLMFKQGRCLCIGPGMKAVKMAEIEKASVIYPSNGCDKVEVIVTMKAHKRQRCLDPRSKQARLIMQAIEKKNFLRRQNM |  | no binding |
